Data: publication PMC9291269
Where two headings read alike, the source gives them in different places. One block for each molecule: values may come before it.

Key:
[1] = target: SAA1 secreted by BEAS-2B cells (lipid-free, in culture supernatant) (human (endogenous in BEAS-2B)); test: immunoblot of HDL-depleted cell culture supernatants
[2] = target: SAA1 secreted by BEAS-2B cells (lipid-free, in culture supernatant) (human (endogenous in BEAS-2B)); test: as above; remark: listed apart in the source
[3] = target: T1, recombinant human serum amyloid A1 (rSAA1) (human), P0DJI8; test: immunoblot of cell culture supernatants; details: remark: other sources report otherwise
T1 chain: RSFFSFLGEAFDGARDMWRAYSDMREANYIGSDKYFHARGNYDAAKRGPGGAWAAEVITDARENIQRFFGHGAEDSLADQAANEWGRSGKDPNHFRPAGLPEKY

[4] = target: T1, recombinant human serum amyloid A1 …; test: immunoblot of cell culture supernatants; details: remark: other sources report otherwise

- stoichiometry N [1]: 2
- stoichiometry N [2]: 6
Molecule: SAA1 secreted by BEAS-2B cells (lipid-free, in culture supernatant) (natural protein)

- stoichiometry N [3]: 6
- stoichiometry N [4]: 2
B1: recombinant human serum amyloid A1 (rSAA1), P0DJI8 19-122 (natural protein)
chain: T1 chain
